Bounds are passed on as bounds.

The values below come from patent publication US20200115460A1 (TEIJIN PHARMA, published 2020).

The target of test [1] is T1, recombinant human IGF-I receptor His tag (305-GR-050, R&D SYSTEMS) (human, UniProt P08069 31-932, limits assumed).
T1 construct: Bought protein, captured on an anti-His antibody chip; also called IGF-IR-His; not shown: His tag
The test is described as follows: SPR, Biacore T200, 36 °C, IGF-IR-His captured by anti-His antibody, 1:1 model. The procedure: An anti-His monoclonal antibody was immobilized to a sensor chip CM3 (GE) with an Amine Coupling Kit (BR-1000-50, GE) and a His Capture Kit (28-9950-56, GE). The immobilization conditions were NHS/EDC: 7 minutes, 50 μg/mL anti-His monoclonal antibody: 3 minutes, ethanolamine: 7 minutes, and target: ≥3000 RU. As analytes, the agent was used at predetermined concentrations.
The sensor chip CM3 immobilized with the anti-His monoclonal antibody was set to Biacore T200, the reaction temperature was set to 36° C., and a running buffer (HBS-EP+, BR-1006-69, GE) was fed at a flow rate 30 μL/min. The amount of the binding ligand was set to about 100 RU, and IGF-IR-His (0.5 to 2×10⁻⁸ mol/L) was added to the sensor chip to be captured by the anti-His monoclonal antibody. Ctrl IgG2a (10 nmol/L) was allowed to react for 1 minute, and HBS-EP+ was fed at a flow rate of 30 μL/min for at least 10 minutes. The analyte and HBS-EP+ were added to flow cells (1 and 2) and flow cells (3 and 4), respectively.
The reaction conditions were set to a binding time of 600 seconds and a dissociation time of 600 seconds. After completion of the reaction, washing was performed with regeneration buffer 1 (0.2% SDS), regeneration buffer 2 (100 mmol/L Tris-HCl (pH 8.5), 1 mol/L NaCl, 15 mmol/L MgCl₂), and regeneration buffer 3 (10 mmol/L glycine-HCl (pH 1.5)) for 1 minute each at a flow rate of 30 μL/min.

Test [2] has as its target T2, Substitution 3 of the CR domain (human IGF-I receptor G315S/S316T, FLAG tag) (human, UniProt P08069 31-1367).
T2 construct: Expressed on transfected HEK 293T cells
The test is described as follows: Cell ELISA on HEK 293T cells expressing the substitution. The procedure:
(§1) HEK 293T cells were seeded in a 10-cm dish coated with poly-D-lysine at 9×10⁶ cells/well. On the next day, each plasmid DNA was transfected into the cells by lipofection. On the following day, the HEK 293T cells were detached with 0.25% trypsin/EDTA and were suspended in a broth. The HEK 293T cells were added to a 96-well plate (coated with poly-D-lysine) at a concentration of 0.8×10⁵ cells/well and were incubated at 37° C. under conditions of 5% CO₂ overnight. The medium was removed from the 96-well plate, and the cells were immobilized with a 10% buffered formalin (Mildform® 10 NM, Wako). The 10% buffered formalin was replaced with a blocking buffer (3% BSA/PBS/sodium azide), and the plate was used in ELISA.
(§2) After washing with a washing liquid twice, anti-mouse-IgG antibody-HRP conjugate solutions (50 μL) adjusted to predetermined concentrations with 0.1% skimmed milk/3% BSA/PBS were added to respective wells and were subjected to reaction at room temperature for about 1 hour. After washing with a washing liquid twice, 100 μL of a substrate (TMB) was added to each well to start the reaction. After about 30 minutes, 100 μL of 0.5 M sulfuric acid was added to each well to stop the reaction, and the absorbances at 450 nm was measured. The value of the absorbance at 450 nm was evaluated as the avidity.

In test [3] the target is T3, wild-type rat IGF-I receptor (FLAG tag, Example 7) (rat, UniProt P24062 31-1370).
T3 construct: Expressed on transfected HEK 293T cells
In words: Cell ELISA on HEK 293T cells expressing the receptor. The procedure:
as §1, §2
For orientation: In an ELISA, binding on a coated surface is turned into a signal by an enzyme label.

Test [4] has as its target T4, rat IGF-I receptor (rat, UniProt P24062 31-1370).
T4 construct: Expressed on transfected P3U1 cells; also called NP_494694
In words: Cell ELISA on P3U1 cells expressing the receptor.

Test [5] has as its target T5, mouse IGF-I receptor (mouse, UniProt Q60751 31-1373).
T5 construct: Expressed on transfected P3U1 cells; also called NP_034643
The test is described as follows: Cell ELISA on P3U1 cells expressing the receptor.

For test [6], the target named is T4, rat IGF-I receptor. The test is described as follows: Cell ELISA, 10 nM antibody, fixed P3U1 cells expressing the receptor. Here is the method: (§3) After the lipofection, the P3U1 cells were cultured at least overnight and were added to a 96-well plate (coated with poly-D-lysine) at a concentration of 0.8×10⁵ cells/well and immobilized with 10% buffered formalin (Mildform® 10 NM, Wako), followed by blocking with phosphate buffer containing 3% BSA. The resulting plate was used for ELISA.
(§4) After washing with a washing liquid twice, anti-mouse-IgG antibody-HRP conjugate solutions (30 μL) adjusted to predetermined concentrations with 0.1% skimmed milk/3% BSA/PBS were added to respective wells and were subjected to reaction at room temperature for about 1 hour. After washing with a washing liquid twice, 50 μL of a substrate (TMB) was added to each well to start the reaction. After about 20 minutes, 50 μL of 0.5 M sulfuric acid was added to each well. The absorbances at 450 nm and 550 nm were measured, and the difference between absorbance values at 450 nm and 550 nm was calculated.

Test [7] has as its target T6, guinea pig IGF-I receptor (guinea pig, UniProt P08069 31-1367 (human entry)).
T6 construct: Expressed on transfected P3U1 cells, or native on guinea pig myoblasts; also called XP_003475316
Described as above. Here is the method:
as §3, §4

Another test addresses T7, rabbit IGF-I receptor (rabbit).
T7 construct: Expressed on transfected P3U1 cells; also called XP_017193273
The test is described as above. Here is the method: as §3, §4

The next test addresses T8, human IGF-I receptor (human, UniProt P08069 31-1367).
T8 construct: Expressed on transfected P3U1 or HEK 293T cells, or native on human myoblasts; also called hIGFIR; IGF-I receptor of human (NP_000866)
Described as above. Here is the method:
as §3, §4

Test [8] has as its target T5, mouse IGF-I receptor. Described as above. Here is the method: as §3, §4
The target of test [9] is T9, cynomolgus monkey IGF-I receptor (cynomolgus monkey, UniProt P08069 31-1367 (human entry)).
T9 construct: Expressed on transfected P3U1 cells; also called NP_001248281
Described as above. The procedure:
as §3, §4

T4 sequence (P24062 31-1370 limits assumed): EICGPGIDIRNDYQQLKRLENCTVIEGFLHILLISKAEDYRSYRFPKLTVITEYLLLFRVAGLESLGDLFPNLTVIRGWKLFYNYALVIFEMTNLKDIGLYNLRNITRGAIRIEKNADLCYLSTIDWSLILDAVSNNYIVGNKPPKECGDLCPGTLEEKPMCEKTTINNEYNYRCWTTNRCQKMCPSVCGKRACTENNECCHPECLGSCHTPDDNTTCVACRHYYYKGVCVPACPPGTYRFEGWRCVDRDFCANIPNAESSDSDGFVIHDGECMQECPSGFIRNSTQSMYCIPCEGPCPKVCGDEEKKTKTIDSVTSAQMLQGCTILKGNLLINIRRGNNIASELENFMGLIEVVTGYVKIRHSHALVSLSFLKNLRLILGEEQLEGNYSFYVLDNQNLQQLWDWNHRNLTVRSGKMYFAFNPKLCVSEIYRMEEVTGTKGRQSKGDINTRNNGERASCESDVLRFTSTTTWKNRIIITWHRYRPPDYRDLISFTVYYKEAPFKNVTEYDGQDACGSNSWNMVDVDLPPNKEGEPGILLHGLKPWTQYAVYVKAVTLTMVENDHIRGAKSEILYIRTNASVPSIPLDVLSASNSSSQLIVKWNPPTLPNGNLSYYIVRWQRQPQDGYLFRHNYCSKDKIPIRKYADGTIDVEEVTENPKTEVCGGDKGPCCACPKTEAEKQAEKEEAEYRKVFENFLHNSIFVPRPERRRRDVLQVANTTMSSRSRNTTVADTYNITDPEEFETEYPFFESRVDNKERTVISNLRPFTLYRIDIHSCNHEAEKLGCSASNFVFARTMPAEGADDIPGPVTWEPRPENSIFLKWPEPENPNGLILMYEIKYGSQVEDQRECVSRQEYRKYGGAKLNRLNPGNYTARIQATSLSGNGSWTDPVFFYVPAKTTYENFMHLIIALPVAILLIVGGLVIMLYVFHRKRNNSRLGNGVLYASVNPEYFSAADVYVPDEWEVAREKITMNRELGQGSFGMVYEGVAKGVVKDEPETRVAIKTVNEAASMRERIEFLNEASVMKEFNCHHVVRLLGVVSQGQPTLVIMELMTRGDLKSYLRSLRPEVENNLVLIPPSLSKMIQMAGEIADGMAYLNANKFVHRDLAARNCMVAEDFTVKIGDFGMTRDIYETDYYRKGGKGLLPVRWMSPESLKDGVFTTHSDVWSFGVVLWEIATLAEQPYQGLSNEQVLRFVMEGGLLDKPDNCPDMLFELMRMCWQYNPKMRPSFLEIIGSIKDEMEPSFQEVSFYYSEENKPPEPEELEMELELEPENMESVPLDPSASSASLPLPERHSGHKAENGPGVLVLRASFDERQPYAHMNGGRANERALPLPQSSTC
T5 sequence (Q60751 other isoform, or with tags, fused parts or gaps limits assumed): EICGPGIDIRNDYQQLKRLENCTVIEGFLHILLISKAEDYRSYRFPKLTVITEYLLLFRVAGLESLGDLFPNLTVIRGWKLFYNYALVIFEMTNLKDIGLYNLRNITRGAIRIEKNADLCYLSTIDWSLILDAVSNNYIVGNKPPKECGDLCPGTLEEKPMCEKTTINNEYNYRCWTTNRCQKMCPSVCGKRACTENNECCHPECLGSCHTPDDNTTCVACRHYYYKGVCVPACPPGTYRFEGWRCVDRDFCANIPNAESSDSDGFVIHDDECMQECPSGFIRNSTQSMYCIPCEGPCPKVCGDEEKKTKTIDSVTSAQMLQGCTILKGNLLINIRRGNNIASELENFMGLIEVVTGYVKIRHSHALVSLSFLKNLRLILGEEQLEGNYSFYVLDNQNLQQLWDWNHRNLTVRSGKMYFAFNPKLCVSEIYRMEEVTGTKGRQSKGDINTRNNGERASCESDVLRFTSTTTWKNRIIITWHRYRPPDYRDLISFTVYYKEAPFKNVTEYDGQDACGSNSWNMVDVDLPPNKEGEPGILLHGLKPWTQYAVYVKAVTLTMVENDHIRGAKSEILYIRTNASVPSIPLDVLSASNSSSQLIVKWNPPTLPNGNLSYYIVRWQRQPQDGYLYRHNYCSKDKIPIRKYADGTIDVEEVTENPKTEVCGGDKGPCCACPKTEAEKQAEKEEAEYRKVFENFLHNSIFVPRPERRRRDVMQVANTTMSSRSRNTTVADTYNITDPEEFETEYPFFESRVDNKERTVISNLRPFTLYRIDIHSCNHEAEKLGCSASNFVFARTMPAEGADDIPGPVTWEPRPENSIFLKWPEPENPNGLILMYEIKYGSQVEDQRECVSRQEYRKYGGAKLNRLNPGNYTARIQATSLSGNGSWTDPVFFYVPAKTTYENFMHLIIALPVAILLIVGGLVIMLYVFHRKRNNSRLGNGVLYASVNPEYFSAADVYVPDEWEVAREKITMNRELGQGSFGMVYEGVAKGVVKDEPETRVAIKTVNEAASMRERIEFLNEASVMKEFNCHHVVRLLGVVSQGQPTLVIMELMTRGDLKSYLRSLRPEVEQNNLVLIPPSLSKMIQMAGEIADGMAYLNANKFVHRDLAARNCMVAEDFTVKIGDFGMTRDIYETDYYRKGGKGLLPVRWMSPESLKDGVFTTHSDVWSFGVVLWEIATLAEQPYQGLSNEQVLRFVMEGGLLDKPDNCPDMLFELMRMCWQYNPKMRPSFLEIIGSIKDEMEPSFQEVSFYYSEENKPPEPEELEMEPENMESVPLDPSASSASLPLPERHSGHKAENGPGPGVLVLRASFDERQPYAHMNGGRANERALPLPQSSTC
T7 sequence (chain, as listed by the source limits assumed): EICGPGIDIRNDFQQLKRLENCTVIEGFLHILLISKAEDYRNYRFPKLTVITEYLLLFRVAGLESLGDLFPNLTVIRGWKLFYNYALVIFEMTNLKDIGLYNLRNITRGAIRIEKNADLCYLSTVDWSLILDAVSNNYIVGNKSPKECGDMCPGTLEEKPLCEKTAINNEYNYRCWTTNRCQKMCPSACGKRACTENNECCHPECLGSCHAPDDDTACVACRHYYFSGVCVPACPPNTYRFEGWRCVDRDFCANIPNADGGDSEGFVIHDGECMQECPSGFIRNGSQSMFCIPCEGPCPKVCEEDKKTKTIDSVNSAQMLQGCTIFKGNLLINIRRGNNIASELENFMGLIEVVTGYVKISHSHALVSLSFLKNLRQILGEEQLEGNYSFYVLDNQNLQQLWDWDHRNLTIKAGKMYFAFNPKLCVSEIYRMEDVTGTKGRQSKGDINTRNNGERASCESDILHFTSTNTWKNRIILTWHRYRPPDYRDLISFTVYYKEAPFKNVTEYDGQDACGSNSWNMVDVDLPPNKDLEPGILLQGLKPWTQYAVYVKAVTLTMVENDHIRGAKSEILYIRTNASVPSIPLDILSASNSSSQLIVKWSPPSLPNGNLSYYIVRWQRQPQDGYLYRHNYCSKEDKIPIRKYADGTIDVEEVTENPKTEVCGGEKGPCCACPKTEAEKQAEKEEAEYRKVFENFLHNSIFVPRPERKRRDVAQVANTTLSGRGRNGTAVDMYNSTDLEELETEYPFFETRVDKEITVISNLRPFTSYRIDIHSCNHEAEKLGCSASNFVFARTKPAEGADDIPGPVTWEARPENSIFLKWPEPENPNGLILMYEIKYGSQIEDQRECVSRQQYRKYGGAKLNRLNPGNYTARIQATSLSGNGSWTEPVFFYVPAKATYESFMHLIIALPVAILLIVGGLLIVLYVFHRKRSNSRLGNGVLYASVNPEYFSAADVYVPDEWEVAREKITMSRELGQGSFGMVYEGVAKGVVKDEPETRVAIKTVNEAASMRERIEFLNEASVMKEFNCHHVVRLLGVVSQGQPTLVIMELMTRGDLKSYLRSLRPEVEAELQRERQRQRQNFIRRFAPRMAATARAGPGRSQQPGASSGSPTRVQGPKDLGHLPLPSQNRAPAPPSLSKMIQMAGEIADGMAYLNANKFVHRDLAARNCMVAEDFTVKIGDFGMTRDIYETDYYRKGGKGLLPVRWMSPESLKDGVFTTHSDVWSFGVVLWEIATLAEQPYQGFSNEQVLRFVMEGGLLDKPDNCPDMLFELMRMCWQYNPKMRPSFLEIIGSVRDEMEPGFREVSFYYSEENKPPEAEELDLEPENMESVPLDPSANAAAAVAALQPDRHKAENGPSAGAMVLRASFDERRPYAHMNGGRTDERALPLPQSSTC

B1: IGF11-16 (antibody, mouse IgG1, kappa, V domains shown)
VH: QIQLQQPGAELVKPGASVKLSCKAPGYTFTSYWMHWVKQRPGQGLEWIGETNPSNSVTNYNEKFKSKATLTVDKSSSTAYMQLSSLTSEDSAVYYCTIGRGRGFAYWGQGTLVTVSA
VL: DIQMNQSPSSLSASLGDTITITCRASQNINFWLSWCQQKPGNIPKLLIYKASNLHTGVPSRFSGSGSGTDFTLTISSLQPEDIATYYCLQGQSYPYTFGGGTKLEIKR
notes: no cleavage site is stated; also called IGF-I receptor agonist antibody; IGF11-16 antibody
Take B1: the Kd – broadly, the equilibrium constant for the complex coming apart – in test [1] was less than 0.01 nM. The koff (commonly the first-order rate constant of dissociation) in test [1] was less than 1e-05 s⁻¹. Also, the kon (in general, the rate constant with which the complex forms) in test [1] worked out at 1.05e+06 M⁻¹ s⁻¹. The binding result was “no binding (tested: 1 nM)” in test [2], “no binding (tested: 1 nM)” in test [3], “no binding (tested: 10 nM)” with rat IGF-I receptor [4] and “no binding (tested: 10 nM)” with mouse IGF-I receptor [5]. The “Avidity (absorbance difference 450-550 nm, Mock cells = 1)” value is 1 fold of Mock cells in the test with rat IGF-I receptor [6]; 5.3 fold of Mock cells in [7]; 5.4 fold of Mock cells with rabbit IGF-I receptor; 5.4 fold of Mock cells in the test with human IGF-I receptor; 0.9 fold of Mock cells with mouse IGF-I receptor [8]; 5.4 fold of Mock cells in test [9].
